Assay results taken from IntAct's records for PubMed 17113272.

B1: Armadillo segment polarity protein (Drosophila melanogaster (Fruit fly)), P18824 (parent)
chain: MSYMPAQNRTMSHNNQYNPPDLPPMVSAKEQTLMWQQNSYLGDSGIHSGAVTQVPSLSGKEDEEMEGDPLMFDLDTGFPQNFTQDQVDDMNQQLSQTRSQRVRAAMFPETLEEGIEIPSTQFDPQQPTAVQRLSEPSQMLKHAVVNLINYQDDAELATRAIPELIKLLNDEDQVVVSQAAMMVHQLSKKEASRHAIMNSPQMVAALVRAISNSNDLESTKAAVGTLHNLSHHRQGLLAIFKSGGIPALVKLLSSPVESVLFYAITTLHNLLLHQDGSKMAVRLAGGLQKMVTLLQRNNVKFLAIVTDCLQILAYGNQESKLIILASGGPNELVRIMRSYDYEKLLWTTSRVLKVLSVCSSNKPAIVDAGGMQALAMHLGNMSPRLVQNCLWTLRNLSDAATKVEGLEALLQSLVQVLGSTDVNVVTCAAGILSNLTCNNQRNKATVCQVGGVDALVRTIINAGDREEITEPAVCALRHLTSRHVDSELAQNAVRLNYGLSVIVKLLHPPSRWPLIKAVIGLIRNLALCPANHAPLREHGAIHHLVRLLMRAFQDTERQRSSIATTGSQQPSAYADGVRMEEIVEGTVGALHILARESHNRALIRQQSVIPIFVRLLFNEIENIQRVAAGVLCELAADKEGAEIIEQEGATGPLTDLLHSRNEGVATYAAAVLFRMSEDKPQDYKKRLSIELTNSLLREDNNIWANADLGMGPDLQDMLGPEEAYEGLYGQGPPSVHSSHGGRAFHQQGYDTLPIDSMQGLEISSPVGGGGAGGAPGNGGAVGGASGGGGNIGAIPPSGAPTSPYSMDMDVGEIDAGALNFDLDAMPTPPNDNNNLAAWYDTDC
partner: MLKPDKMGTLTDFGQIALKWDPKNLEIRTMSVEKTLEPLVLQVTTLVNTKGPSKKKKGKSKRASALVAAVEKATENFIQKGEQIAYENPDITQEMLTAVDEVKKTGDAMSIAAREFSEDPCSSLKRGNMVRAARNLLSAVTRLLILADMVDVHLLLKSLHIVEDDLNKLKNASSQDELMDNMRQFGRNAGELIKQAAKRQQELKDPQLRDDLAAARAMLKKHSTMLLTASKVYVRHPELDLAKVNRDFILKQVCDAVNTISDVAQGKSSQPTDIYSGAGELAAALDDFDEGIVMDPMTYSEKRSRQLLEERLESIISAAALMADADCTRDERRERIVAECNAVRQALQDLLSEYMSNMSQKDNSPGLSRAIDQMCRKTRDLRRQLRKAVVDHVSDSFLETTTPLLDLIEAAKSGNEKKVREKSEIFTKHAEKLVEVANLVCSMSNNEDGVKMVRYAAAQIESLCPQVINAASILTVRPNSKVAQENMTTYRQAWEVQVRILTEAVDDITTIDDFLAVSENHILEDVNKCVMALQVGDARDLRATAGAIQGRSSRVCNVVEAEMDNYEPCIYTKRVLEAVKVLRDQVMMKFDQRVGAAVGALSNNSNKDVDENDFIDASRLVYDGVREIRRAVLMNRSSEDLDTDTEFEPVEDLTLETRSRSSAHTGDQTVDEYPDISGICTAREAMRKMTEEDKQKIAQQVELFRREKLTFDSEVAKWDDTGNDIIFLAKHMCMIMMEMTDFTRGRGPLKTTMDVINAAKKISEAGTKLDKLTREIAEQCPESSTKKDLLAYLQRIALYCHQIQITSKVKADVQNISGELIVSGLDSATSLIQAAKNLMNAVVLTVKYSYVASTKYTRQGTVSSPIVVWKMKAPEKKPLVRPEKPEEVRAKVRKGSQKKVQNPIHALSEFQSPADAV
B2: Catenin beta-1 (Mus musculus), Q02248 (parent)
chain: MATQADLMELDMAMEPDRKAAVSHWQQQSYLDSGIHSGATTTAPSLSGKGNPEEEDVDTSQVLYEWEQGFSQSFTQEQVADIDGQYAMTRAQRVRAAMFPETLDEGMQIPSTQFDAAHPTNVQRLAEPSQMLKHAVVNLINYQDDAELATRAIPELTKLLNDEDQVVVNKAAVMVHQLSKKEASRHAIMRSPQMVSAIVRTMQNTNDVETARCTAGTLHNLSHHREGLLAIFKSGGIPALVKMLGSPVDSVLFYAITTLHNLLLHQEGAKMAVRLAGGLQKMVALLNKTNVKFLAITTDCLQILAYGNQESKLIILASGGPQALVNIMRTYTYEKLLWTTSRVLKVLSVCSSNKPAIVEAGGMQALGLHLTDPSQRLVQNCLWTLRNLSDAATKQEGMEGLLGTLVQLLGSDDINVVTCAAGILSNLTCNNYKNKMMVCQVGGIEALVRTVLRAGDREDITEPAICALRHLTSRHQEAEMAQNAVRLHYGLPVVVKLLHPPSHWPLIKATVGLIRNLALCPANHAPLREQGAIPRLVQLLVRAHQDTQRRTSMGGTQQQFVEGVRMEEIVEGCTGALHILARDVHNRIVIRGLNTIPLFVQLLYSPIENIQRVAAGVLCELAQDKEAAEAIEAEGATAPLTELLHSRNEGVATYAAAVLFRMSEDKPQDYKKRLSVELTSSLFRTEPMAWNETADLGLDIGAQGEALGYRQDDPSYRSFHSGGYGQDALGMDPMMEHEMGGHHPGADYPVDGLPDLGHAQDLMDGLPPGDSNQLAWFDTDL
partner: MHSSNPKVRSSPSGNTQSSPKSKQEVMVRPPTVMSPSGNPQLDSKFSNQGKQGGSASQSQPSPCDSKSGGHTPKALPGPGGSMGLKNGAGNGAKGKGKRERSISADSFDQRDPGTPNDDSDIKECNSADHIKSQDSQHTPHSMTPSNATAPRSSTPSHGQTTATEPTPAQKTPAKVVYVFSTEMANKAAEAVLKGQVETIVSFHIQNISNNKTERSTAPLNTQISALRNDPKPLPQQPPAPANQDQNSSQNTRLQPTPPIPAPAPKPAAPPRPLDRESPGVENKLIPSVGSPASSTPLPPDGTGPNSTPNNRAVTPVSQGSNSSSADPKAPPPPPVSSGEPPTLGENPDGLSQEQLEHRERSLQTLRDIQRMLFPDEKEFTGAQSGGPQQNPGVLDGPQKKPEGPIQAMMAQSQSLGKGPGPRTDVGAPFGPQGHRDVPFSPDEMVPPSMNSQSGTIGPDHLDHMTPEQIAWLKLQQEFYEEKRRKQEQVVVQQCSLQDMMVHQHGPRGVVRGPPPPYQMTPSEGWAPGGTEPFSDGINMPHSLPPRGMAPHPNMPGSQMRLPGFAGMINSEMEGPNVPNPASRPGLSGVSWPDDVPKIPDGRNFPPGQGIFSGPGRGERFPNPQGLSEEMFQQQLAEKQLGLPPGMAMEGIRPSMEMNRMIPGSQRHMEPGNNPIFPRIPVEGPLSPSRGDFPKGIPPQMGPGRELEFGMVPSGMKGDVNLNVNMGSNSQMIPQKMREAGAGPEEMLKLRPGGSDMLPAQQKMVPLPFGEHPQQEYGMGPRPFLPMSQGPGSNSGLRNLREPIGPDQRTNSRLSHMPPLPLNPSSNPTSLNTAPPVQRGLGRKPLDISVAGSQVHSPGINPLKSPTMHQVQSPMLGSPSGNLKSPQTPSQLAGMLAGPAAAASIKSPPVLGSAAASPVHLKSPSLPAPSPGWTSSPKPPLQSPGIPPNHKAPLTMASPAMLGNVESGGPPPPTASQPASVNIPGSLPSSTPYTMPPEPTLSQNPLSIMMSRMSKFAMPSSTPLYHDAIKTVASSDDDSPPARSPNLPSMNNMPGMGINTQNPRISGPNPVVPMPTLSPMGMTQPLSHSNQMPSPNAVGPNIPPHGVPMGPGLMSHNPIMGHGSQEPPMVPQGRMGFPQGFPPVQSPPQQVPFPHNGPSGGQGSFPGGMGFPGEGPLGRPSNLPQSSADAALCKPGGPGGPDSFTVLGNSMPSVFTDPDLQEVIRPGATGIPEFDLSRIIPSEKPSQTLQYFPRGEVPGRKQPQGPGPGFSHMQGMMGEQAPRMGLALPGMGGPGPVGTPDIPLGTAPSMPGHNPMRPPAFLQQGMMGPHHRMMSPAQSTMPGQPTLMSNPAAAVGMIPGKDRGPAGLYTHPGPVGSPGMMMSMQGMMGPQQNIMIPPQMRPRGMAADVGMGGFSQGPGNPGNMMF

Variants of: B1
Details: with ctna_drome alpha-Cat

| Variant | effect of a mutation on the interaction |
| --- | --- |
| Y150A | disrupting interaction |

Variants of: B2
Details: with bcl9_human BCL9, O00512

| Variant | effect of a mutation on the interaction |
| --- | --- |
| D164A | disrupting interaction |
